Data on 94 variants can be found in the supplement of paper PMC10567573.

The chains are these.
B1: ZBED2 (parent)
chain: FHLAPARAGHHPNQYATCRLCGRQ
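Further: lentivirally expressed fusions sorted by FACS into six bins by GFP to DsRed ratio, PSI derived from sequencing read proportions per bin multiplied by bin number.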

The variants in the series derive from B1. Briefly: protein stability index of a GFP-peptide fusion (GPS, HEK-293T) (PSI 1-6); higher = more stable. To be noted: c terminus: a fixed tail appended.
Consider FHLAPARAGHHPNSYATCRLCGRQ [Q14S], for which the protein stability index was 1.48.

Consider FHLAPARAGHHPNPYATCRLCGRQ [Q14P], for which the protein stability index worked out at 2.48.

As for FHLAPARAGHHPNEYATCRLCGRQ [Q14E], the protein stability index was 2.16.

Regarding FHLAPARAGHHPNDYATCRLCGRQ [Q14D], the protein stability index stood at 1.99.

For the variant FHLAPARAGHHPNCYATCRLCGRQ [Q14C], the protein stability index came out at 2.11.

On to FHLAPARAGHHPNKYATCRLCGRQ [Q14K], for which the protein stability index was 2.58.

Turning to FHLAPARAGHHPNYYATCRLCGRQ [Q14Y], the protein stability index came to 2.31.

As to FHLAPARAGHHPNTYATCRLCGRQ [Q14T], the protein stability index stood at 1.47.

Consider FHLAPARAGHHPNQYATCRDCGRQ [L20D], for which the protein stability index amounted to 1.27.

In the case of FHLAPARAGHHPNQYATCRCCGRQ [L20C], the protein stability index is 1.54.

For the variant FHLAPARAGHHPNQYATCRFCGRQ [L20F], the protein stability index came out at 2.4.

Regarding FHLAPARAGHHLNQYATCRLCGRQ [P12L], the protein stability index is 2.12.

In the case of FHLAPARAGHHINQYATCRLCGRQ [P12I], the protein stability index worked out at 1.95.

On to FHLAPARAGHHHNQYATCRLCGRQ [P12H], for which the protein stability index worked out at 3.06.

As for FHLAPARAGHHVNQYATCRLCGRQ [P12V], the protein stability index turned out to be 1.49.

Consider FHLAPARAGHHYNQYATCRLCGRQ [P12Y], for which the protein stability index is 1.47.

FHLAPARAGHHCNQYATCRLCGRQ [P12C]: the protein stability index came out at 2.67.

As for FHLAPARAGHHGNQYATCRLCGRQ [P12G], the protein stability index is 2.48.

As to FHLAPARAGHHANQYATCRLCGRQ [P12A], the protein stability index worked out at 1.5.

Turning to FHLAPARAGHHSNQYATCRLCGRQ [P12S], the protein stability index turned out to be 2.23.

In the case of FHLAPARAGHHWNQYATCRLCGRQ [P12W], the protein stability index amounted to 1.52.

With FHLAPARAGHHFNQYATCRLCGRQ [P12F], the protein stability index was 2.1.

As for FHLAPARFGHHPNQYATCRLCGRQ [A8F], the protein stability index stood at 2.6.

Take FHLAPARNGHHPNQYATCRLCGRQ [A8N]: the protein stability index is 2.31.

As to FHLAPARPGHHPNQYATCRLCGRQ [A8P], the protein stability index stood at 2.56.

FHLAPARGGHHPNQYATCRLCGRQ [A8G]: the protein stability index came out at 2.87.

FHLAPARIGHHPNQYATCRLCGRQ [A8I]: the protein stability index turned out to be 2.73.

FHLAPARSGHHPNQYATCRLCGRQ [A8S]: the protein stability index is 1.76.

In the case of FHLAPARVGHHPNQYATCRLCGRQ [A8V], the protein stability index stood at 1.65.

Regarding FHLAPARWGHHPNQYATCRLCGRQ [A8W], the protein stability index came out at 3.08.

FHLAPARMGHHPNQYATCRLCGRQ [A8M]: the protein stability index stood at 2.75.

For the variant FHLAPARLGHHPNQYATCRLCGRQ [A8L], the protein stability index is 2.47.

On to FHLAPARKGHHPNQYATCRLCGRQ [A8K], for which the protein stability index was determined as 1.69.

As to FHLAPARDGHHPNQYATCRLCGRQ [A8D], the protein stability index is 1.36.

For FHLAPARTGHHPNQYATCRLCGRQ [A8T], the protein stability index stood at 1.83.

Regarding FHLAPARQGHHPNQYATCRLCGRQ [A8Q], the protein stability index worked out at 2.02.

For the variant FHLAPARCGHHPNQYATCRLCGRQ [A8C], the protein stability index was 3.28.

In the case of FHLAPAREGHHPNQYATCRLCGRQ [A8E], the protein stability index is 2.34.

With FHLAPARYGHHPNQYATCRLCGRQ [A8Y], the protein stability index was determined as 3.15.

Consider FHLAPARRGHHPNQYATCRLCGRQ [A8R], for which the protein stability index came to 1.3.

For FHLAPARHGHHPNQYATCRLCGRQ [A8H], the protein stability index came out at 1.75.

FHLAPARALHHPNQYATCRLCGRQ [G9L]: the protein stability index came out at 2.55.

Consider FHLAPARAPHHPNQYATCRLCGRQ [G9P], for which the protein stability index worked out at 1.69.

For FHLAPARAQHHPNQYATCRLCGRQ [G9Q], the protein stability index came to 2.11.

For FHLAPARAVHHPNQYATCRLCGRQ [G9V], the protein stability index came to 1.37.

In the case of FHLAPARATHHPNQYATCRLCGRQ [G9T], the protein stability index turned out to be 2.44.

Consider FHLAPARAIHHPNQYATCRLCGRQ [G9I], for which the protein stability index was determined as 1.84.

Turning to FHLAPARAAHHPNQYATCRLCGRQ [G9A], the protein stability index is 1.86.

With FHLAPARANHHPNQYATCRLCGRQ [G9N], the protein stability index amounted to 2.11.

For the variant FHLAPARASHHPNQYATCRLCGRQ [G9S], the protein stability index was determined as 2.51.

Consider FHLAPARAMHHPNQYATCRLCGRQ [G9M], for which the protein stability index amounted to 2.27.

Consider FHLAPARAKHHPNQYATCRLCGRQ [G9K], for which the protein stability index is 1.08.

FHLAPARACHHPNQYATCRLCGRQ [G9C]: the protein stability index came to 3.72.

Turning to FHLAPARAHHHPNQYATCRLCGRQ [G9H], the protein stability index is 2.22.

For FHLAPARADHHPNQYATCRLCGRQ [G9D], the protein stability index worked out at 1.83.

As for FHLAPARAEHHPNQYATCRLCGRQ [G9E], the protein stability index is 1.97.

As to FHLAPARAYHHPNQYATCRLCGRQ [G9Y], the protein stability index came out at 1.99.

On to FHLAPARAWHHPNQYATCRLCGRQ [G9W], for which the protein stability index stood at 2.05.

Turning to FHLAPARAFHHPNQYATCRLCGRQ [G9F], the protein stability index was found to be 1.77.

For the variant FHLAPAKAGHHPNQYATCRLCGRQ [R7K], the protein stability index was found to be 2.59.

FHLAPAMAGHHPNQYATCRLCGRQ [R7M]: the protein stability index was found to be 2.13.

As for FHLAPAAAGHHPNQYATCRLCGRQ [R7A], the protein stability index was 1.74.

FHLAPATAGHHPNQYATCRLCGRQ [R7T]: the protein stability index is 2.1.

Turning to FHLAPAVAGHHPNQYATCRLCGRQ [R7V], the protein stability index worked out at 1.73.

For the variant FHLAPACAGHHPNQYATCRLCGRQ [R7C], the protein stability index turned out to be 3.77.

On to FHLAPAPAGHHPNQYATCRLCGRQ [R7P], for which the protein stability index was 1.92.

For FHLAPAGAGHHPNQYATCRLCGRQ [R7G], the protein stability index came to 2.22.

Take FHLAPAHAGHHPNQYATCRLCGRQ [R7H]: the protein stability index came out at 2.61.

As to FHLAPAFAGHHPNQYATCRLCGRQ [R7F], the protein stability index is 2.11.

Take FHLAPAIAGHHPNQYATCRLCGRQ [R7I]: the protein stability index came to 1.55.

In the case of FHLAPAQAGHHPNQYATCRLCGRQ [R7Q], the protein stability index was 1.93.

Turning to FHLAPAEAGHHPNQYATCRLCGRQ [R7E], the protein stability index worked out at 2.04.

In the case of FHLAPANAGHHPNQYATCRLCGRQ [R7N], the protein stability index is 2.15.

As to FHLAPALAGHHPNQYATCRLCGRQ [R7L], the protein stability index was 1.92.

Take FHLAPASAGHHPNQYATCRLCGRQ [R7S]: the protein stability index was 1.4.

Regarding FHLAPAYAGHHPNQYATCRLCGRQ [R7Y], the protein stability index amounted to 2.09.

FHLAPADAGHHPNQYATCRLCGRQ [R7D]: the protein stability index was 2.34.

On to FHLAPARAGHHPNQRATCRLCGRQ [Y15R], for which the protein stability index came out at 1.15.

As for FHLAPARAGHHPNQQATCRLCGRQ [Y15Q], the protein stability index was 2.65.

With FHLAPARAGHHPNQEATCRLCGRQ [Y15E], the protein stability index was 2.43.

For FHLAPARAGHHPNQHATCRLCGRQ [Y15H], the protein stability index amounted to 2.14.

As to FHLAPARAGHHPNQFATCRLCGRQ [Y15F], the protein stability index was determined as 2.54.

Turning to FHLAPARAGHHPNQCATCRLCGRQ [Y15C], the protein stability index was found to be 1.44.

Take FHLAPARAGHHPNQKATCRLCGRQ [Y15K]: the protein stability index came out at 1.53.

As to FHLAPARAGHHPNQIATCRLCGRQ [Y15I], the protein stability index amounted to 1.63.

In the case of FHLAPARAGHHPNQVATCRLCGRQ [Y15V], the protein stability index came to 1.57.

On to FHLAPARAGHHPNQPATCRLCGRQ [Y15P], for which the protein stability index came to 1.07.

For the variant FHLAPARAGHHPNQYAYCRLCGRQ [T17Y], the protein stability index was determined as 2.15.

With FHLAPARAGHHPNQYAGCRLCGRQ [T17G], the protein stability index worked out at 2.76.

FHLAPARAGHHPNQYADCRLCGRQ [T17D]: the protein stability index worked out at 2.85.

For FHLAPARAGHHPNQYAFCRLCGRQ [T17F], the protein stability index was 2.23.

Take FHLAPARAGHHPNQYAICRLCGRQ [T17I]: the protein stability index was 1.55.

As for FHLAPARAGHHPNQYASCRLCGRQ [T17S], the protein stability index is 2.47.

As for FHLAPARAGHHPNQYANCRLCGRQ [T17N], the protein stability index stood at 1.99.
